Test results from paper PMC11021482.

Target: T1, CXCR2 of mouse DRG neurons (mouse (endogenous in DRG)) (UniProt P35343)
T1 sequence: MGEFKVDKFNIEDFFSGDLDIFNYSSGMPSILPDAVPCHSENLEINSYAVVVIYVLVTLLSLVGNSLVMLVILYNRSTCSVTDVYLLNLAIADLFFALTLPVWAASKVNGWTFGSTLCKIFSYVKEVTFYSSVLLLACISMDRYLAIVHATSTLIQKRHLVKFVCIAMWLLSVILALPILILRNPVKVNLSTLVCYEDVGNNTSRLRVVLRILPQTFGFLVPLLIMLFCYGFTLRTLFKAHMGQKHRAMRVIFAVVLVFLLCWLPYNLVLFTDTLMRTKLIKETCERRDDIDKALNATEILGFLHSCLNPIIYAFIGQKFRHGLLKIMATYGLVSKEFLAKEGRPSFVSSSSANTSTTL

EC50 of the Ca^2+ response of cultured mouse DRG neurons to CXCL5 (Fura-2 imaging, dose-response): 24.8 nM
B1: recombinant mouse CXCL5 (ligand)
chain: APSSVIAATELRCVCLTVTPKINPKLIANLEVIPAGPQCPTVEVIAKLKNQKEVCLDPEAPVIKKIIQKILGSDKKKAKRNALAVERTASVQ
